The values that follow come from the Immune Epitope Database (IEDB).

For experiment [1], the target named is HLA-A*68:02. The experiment can be described thus: IEDB peptide-MHC binding, cellular MHC/competitive/fluorescence; ≥ and ≤ were set here for values at or beyond the usual limits of such assays.
For experiment [2], the target named is HLA-A*02:01. Put plainly: IEDB peptide-MHC binding, purified MHC/competitive/radioactivity; ≥ and ≤ were set here for values at or beyond the usual limits of such assays.
The target in experiment [3] is HLA-A*02:02. The experiment is described as above.
Experiment [4] concerns the target HLA-A*02:03. Described as above.
Experiment [5] has as its target HLA-A*02:06. The description is as above.
Setting [6] is: source organism: Vaccinia virus WR.
Where [7] appears, read: source organism: Hepacivirus hominis.

As a reminder, the IC50 is the concentration that gives 50% inhibition. As for GLKIEEIEKV, the IC50 in experiment [1] (setting [6]) is ≥ 70 µM; in experiment [2] (setting [6]) it was 0.065 µM; in experiment [3] (setting [6]) it was 0.015 µM; in experiment [4] (setting [6]), 0.0066 µM; in experiment [5] (setting [6]) it was 0.198 µM.
The like results for GMSIVCIVA were, in that order, 9.84 µM, 0.083 µM, 0.19 µM, 0.656 µM and 4.51 µM.
Turning to AQFLYLYAL, the IC50 in experiment [1] (source organism: SARS-CoV1) was determined as 9.62 µM; in experiment [2] (source organism: SARS-CoV1) it was 0.00039 µM; in experiment [3] (source organism: SARS-CoV1), 0.00092 µM; in experiment [4] (source organism: SARS-CoV1) it was 0.0062 µM; in experiment [5] (source organism: SARS-CoV1) it was 0.00035 µM.
In the case of FLTNKLLLFA, the half-inhibitory concentration (IC50) turned out to be 11.7 µM in experiment [1] (source organism: SARS-CoV1); 0.0062 µM in experiment [2] (source organism: SARS-CoV1); 0.00042 µM in experiment [3] (source organism: SARS-CoV1); 0.0014 µM in experiment [4] (source organism: SARS-CoV1); 0.0075 µM in experiment [5] (source organism: SARS-CoV1).
As for ILSNKLLYAA, the IC50 in experiment [1] (setting [6]) came to 12 µM; in experiment [2] (setting [6]) it was 0.051 µM; in experiment [3] (setting [6]), 0.0081 µM; in experiment [4] (setting [6]), 1.11 µM; in experiment [5] (setting [6]), 0.15 µM.
The like results for QLLKILDNL were, in that order, 21.7 µM, 0.441 µM, 0.227 µM, 0.319 µM and 0.135 µM.
In the case of YLSGTDDEVI, the IC50 was 15.8 µM in experiment [1] (setting [6]); 0.22 µM in experiment [2] (setting [6]); 0.0063 µM in experiment [3] (setting [6]); 0.211 µM in experiment [4] (setting [6]); 0.947 µM in experiment [5] (setting [6]).
With KIILFQNNDI, the IC50 is 17.2 µM in experiment [1] (setting [6]); 3.66 µM in experiment [2] (setting [6]); 1.61 µM in experiment [3] (setting [6]); 2 µM in experiment [4] (setting [6]); 2.17 µM in experiment [5] (setting [6]).
The corresponding values for IMAFILGIII are 14.7 µM, 1.11 µM, 0.632 µM, 3.16 µM and 3.19 µM.
The corresponding values for SINNQLMYDI are 6.46 µM, 2.38 µM, 0.492 µM, 0.482 µM and 4.84 µM.
The like results for KILSDENYL were, in that order, 46.6 µM, 0.121 µM, 0.196 µM, 1.17 µM and 0.028 µM.
On to VLTHGLASV, for which the IC50 in experiment [1] (source organism: SARS-CoV1) turned out to be 5.42 µM; in experiment [2] (source organism: SARS-CoV1), 0.0037 µM; in experiment [3] (source organism: SARS-CoV1), 0.0096 µM; in experiment [4] (source organism: SARS-CoV1), 0.0003 µM; in experiment [5] (source organism: SARS-CoV1), 0.0014 µM.
For the sequence MLCLLLLSV, the IC50 in experiment [1] (setting [7]) turned out to be 15.4 µM; in experiment [2] (setting [7]), 0.142 µM; in experiment [3] (setting [7]), 0.21 µM; in experiment [4] (setting [7]) it was 0.263 µM; in experiment [5] (setting [7]), 0.326 µM.
Regarding YLGHSAGFT, the IC50 in experiment [1] (setting [6]) was 8.45 µM; in experiment [2] (setting [6]), 1.56 µM; in experiment [3] (setting [6]), 0.874 µM; in experiment [4] (setting [6]) it was 0.225 µM; in experiment [5] (setting [6]), 4.54 µM.
In the case of RILGAGCFV, the IC50 was found to be 7.01 µM in experiment [1] (source organism: SARS-CoV1); 0.02 µM in experiment [2] (source organism: SARS-CoV1); 0.024 µM in experiment [3] (source organism: SARS-CoV1); 0.053 µM in experiment [4] (source organism: SARS-CoV1); 0.038 µM in experiment [5] (source organism: SARS-CoV1).
GLLLLCVGV: the IC50 in experiment [1] (setting [7]) came out at 49.2 µM; in experiment [2] (setting [7]), 0.043 µM; in experiment [3] (setting [7]), 0.479 µM; in experiment [4] (setting [7]) it was 0.285 µM; in experiment [5] (setting [7]), 0.892 µM.
The corresponding values for LLSVGVGIYL are 20.1 µM, 0.018 µM, 0.012 µM, 0.568 µM and 0.575 µM.
For the sequence LALTDVEKRI, the IC50 in experiment [1] (setting [6]) stood at 14.9 µM; in experiment [2] (setting [6]) it was 1.42 µM; in experiment [3] (setting [6]) it was 0.199 µM; in experiment [4] (setting [6]), 0.403 µM; in experiment [5] (setting [6]), 2.41 µM.
LIYRQLTSNV: the IC50 in experiment [1] (setting [6]) turned out to be 6.39 µM; in experiment [2] (setting [6]), 0.663 µM; in experiment [3] (setting [6]) it was 0.079 µM; in experiment [4] (setting [6]) it was 0.0075 µM; in experiment [5] (setting [6]) it was 0.169 µM.
With ALVSGTATA, the concentration for half-maximal inhibition (IC50) in experiment [1] (source organism: SARS-CoV1) worked out at 31.3 µM; in experiment [2] (source organism: SARS-CoV1), 0.134 µM; in experiment [3] (source organism: SARS-CoV1), 0.0046 µM; in experiment [4] (source organism: SARS-CoV1), 0.0081 µM; in experiment [5] (source organism: SARS-CoV1), 0.269 µM.
With RLVPGATYAL, the IC50 in experiment [1] (setting [7]) turned out to be 45.8 µM; in experiment [2] (setting [7]), 0.15 µM; in experiment [3] (setting [7]), 0.012 µM; in experiment [4] (setting [7]) it was 0.834 µM; in experiment [5] (setting [7]), 0.834 µM.
For the sequence FLQISRVNDL, the IC50 in experiment [1] (setting [6]) stood at 7.36 µM; in experiment [2] (setting [6]), 0.013 µM; in experiment [3] (setting [6]) it was 0.0052 µM; in experiment [4] (setting [6]), 0.067 µM; in experiment [5] (setting [6]) it was 0.582 µM.
Take ILFLTLIVFT: the IC50 in experiment [1] (source organism: SARS-CoV1) is 7.11 µM; in experiment [2] (source organism: SARS-CoV1), 0.021 µM; in experiment [3] (source organism: SARS-CoV1), 0.024 µM; in experiment [4] (source organism: SARS-CoV1), 1.07 µM; in experiment [5] (source organism: SARS-CoV1), 0.703 µM.
As to SLIYYQNEVT, the IC50 was 7.2 µM in experiment [1] (setting [6]); 0.529 µM in experiment [2] (setting [6]); 0.077 µM in experiment [3] (setting [6]); 0.606 µM in experiment [4] (setting [6]); 4.31 µM in experiment [5] (setting [6]).
